Target: DNA polymerase II (Pol II) of E. coli (E. coli, UniProt P21189 1-783)
Assay: SPR

Sequence of DNA polymerase II (Pol II) of E. coli (P21189 whole entry): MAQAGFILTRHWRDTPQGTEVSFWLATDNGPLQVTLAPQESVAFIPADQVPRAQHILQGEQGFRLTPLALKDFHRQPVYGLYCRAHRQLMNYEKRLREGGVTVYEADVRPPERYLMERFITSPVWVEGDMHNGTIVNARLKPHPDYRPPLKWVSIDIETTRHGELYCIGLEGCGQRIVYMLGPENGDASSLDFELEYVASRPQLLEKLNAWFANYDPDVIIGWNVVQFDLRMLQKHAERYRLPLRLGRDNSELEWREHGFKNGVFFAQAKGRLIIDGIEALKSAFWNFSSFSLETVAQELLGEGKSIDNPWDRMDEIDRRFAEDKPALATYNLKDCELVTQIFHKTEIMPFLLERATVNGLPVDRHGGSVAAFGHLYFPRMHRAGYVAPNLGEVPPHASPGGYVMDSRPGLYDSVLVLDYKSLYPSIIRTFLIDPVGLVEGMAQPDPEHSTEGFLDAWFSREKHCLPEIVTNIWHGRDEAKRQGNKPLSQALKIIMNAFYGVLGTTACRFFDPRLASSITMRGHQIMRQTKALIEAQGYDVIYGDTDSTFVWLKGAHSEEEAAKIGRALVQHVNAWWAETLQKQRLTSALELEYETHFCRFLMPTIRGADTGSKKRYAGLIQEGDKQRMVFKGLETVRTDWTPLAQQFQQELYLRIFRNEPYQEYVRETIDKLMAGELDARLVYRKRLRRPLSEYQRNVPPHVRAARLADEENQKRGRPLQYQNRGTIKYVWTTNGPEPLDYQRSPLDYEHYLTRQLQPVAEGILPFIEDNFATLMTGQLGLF

Kd: 182 nM
koff: 0.00273 s⁻¹
kon: 15100 M⁻¹ s⁻¹
B1: mutant β^148–152 sliding clamp, N-terminally His6 and cAMP-dependent kinase motif tagged (natural protein, E. coli)
chain: MKFTVEREHLLKPLQQVSGPLGGRPTLPILGNLLLQVADGTLSLTGTDLEMEMVARVALVQPHEPGATTVPARKFFDICRGLPEGAEIAVQLEGERMLVRSGRSRFSLSTLPAADFPNLDDWQSEVEFTLPQATMKRLIEATQFSMAAAAAAYYLNGMLFETEGEELRTVATDGHRLAVCSMPIGQSLPSHSVIVPRKGVIELMRMLDGGDNPLRVQIGSNNIRAHVGDFIFTSKLVDGRFPDYRRVLPKNPDKHLEAGCDLLKQAFARAAILSNEKFRGVRLYVSENQLKITANNPEQEEAEEILDVTYSGAEMEIGFNVSYVLDVLNALKCENVRMMLTDSVSSVQIEDAASQSAAYVVMPMRL

— paper PMC2670953 (Journal of molecular biology, 2009)
